Laboratory results as given in patent publication US20220332804A1 (CSL INNOVATION, published 2022).
Residue numbers refer to the chain shown, from its start.

Key:
Assay in all cases: SPR, KD relative to WT C2;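 note: biacore SPR at 37 °C, anti-C2 mAbs captured on anti-human IgG chips with alanine or serine point mutants of C2 as analyte, KD from 1:1 fit compared with wild-type C2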
[1] = biological target: T1, human C2 G414A (human, UniProt P06681 21-752)
T1 sequence: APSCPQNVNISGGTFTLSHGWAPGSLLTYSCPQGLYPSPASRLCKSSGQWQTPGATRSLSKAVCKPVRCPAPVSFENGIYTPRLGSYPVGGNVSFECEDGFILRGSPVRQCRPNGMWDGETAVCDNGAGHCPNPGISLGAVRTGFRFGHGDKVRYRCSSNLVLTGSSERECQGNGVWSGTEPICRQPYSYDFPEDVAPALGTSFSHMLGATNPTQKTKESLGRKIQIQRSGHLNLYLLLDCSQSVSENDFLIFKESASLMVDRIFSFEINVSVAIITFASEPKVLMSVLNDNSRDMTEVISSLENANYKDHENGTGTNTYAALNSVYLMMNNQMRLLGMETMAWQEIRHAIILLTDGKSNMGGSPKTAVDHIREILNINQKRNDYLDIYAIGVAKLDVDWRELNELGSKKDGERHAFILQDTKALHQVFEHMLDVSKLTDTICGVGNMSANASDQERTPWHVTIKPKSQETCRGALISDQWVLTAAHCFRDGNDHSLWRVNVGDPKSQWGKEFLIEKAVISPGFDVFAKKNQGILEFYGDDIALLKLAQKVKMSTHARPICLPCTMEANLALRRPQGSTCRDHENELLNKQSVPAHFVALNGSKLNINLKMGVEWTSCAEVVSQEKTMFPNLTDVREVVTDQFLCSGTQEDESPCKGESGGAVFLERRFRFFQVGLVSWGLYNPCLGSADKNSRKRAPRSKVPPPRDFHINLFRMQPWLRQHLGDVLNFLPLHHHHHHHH

[2] = biological target: T2, human C2 S278A (human, UniProt P06681 21-752)
T2 sequence: T1 sequence with S258A, A394G

[3] = biological target: T3, human C2 R688A (human, UniProt P06681 21-752)
T3 sequence: T1 sequence with A394G, R668A

[4] = biological target: T4, human C2 A444S (human, UniProt P06681 21-752)
T4 sequence: T1 sequence with A394G, A424S

B1: RF16-242 (antibody, human IgG4 S228P, lambda, V domains shown)
VH: EVQLLQSGAEVKKPGESLKISCKGSGYSFTSYWIGWVRQMPGKGLEWMGIIYPGDSDTRYSPSFQGQVTISADKSISTAYLQWSSLKASDTAMYYCARRGHYGDYFDYWGQGTLVTVSS
VL: SYELTQPPSVSVSPGQTARITCSGDALPKKYAYWYHQKSGQAPVLVIYEDRRRPSEIPERFSGSSSGTMATLTITGAQVEDEGVYFCYSRDRAGNQRVFGGGTQLTVLG
notes: pH-dependent anti-C2 antibody from a phage display library
Fold diff [1]: 1 fold
Fold diff [2]: 1 fold
Fold diff [3]: 2 fold
Fold diff [4]: 3 fold
